The assay concerns the target cLUC-SlPIF4 (tomato (Solanum lycopersicum)). Kind of assay: split reporter (BiFC, NanoBiT); split luciferase complementation: cLUC-SlPIF4 and nLUC-SlDELLA co-expressed in N. benthamiana leaves for 2 days; 1 mM D-luciferin; camera and microplate luminometer.

These results are taken from article PMC11384114.

Chain of cLUC-SlPIF4 (tomato (Solanum lycopersicum)) (main, as listed by the source): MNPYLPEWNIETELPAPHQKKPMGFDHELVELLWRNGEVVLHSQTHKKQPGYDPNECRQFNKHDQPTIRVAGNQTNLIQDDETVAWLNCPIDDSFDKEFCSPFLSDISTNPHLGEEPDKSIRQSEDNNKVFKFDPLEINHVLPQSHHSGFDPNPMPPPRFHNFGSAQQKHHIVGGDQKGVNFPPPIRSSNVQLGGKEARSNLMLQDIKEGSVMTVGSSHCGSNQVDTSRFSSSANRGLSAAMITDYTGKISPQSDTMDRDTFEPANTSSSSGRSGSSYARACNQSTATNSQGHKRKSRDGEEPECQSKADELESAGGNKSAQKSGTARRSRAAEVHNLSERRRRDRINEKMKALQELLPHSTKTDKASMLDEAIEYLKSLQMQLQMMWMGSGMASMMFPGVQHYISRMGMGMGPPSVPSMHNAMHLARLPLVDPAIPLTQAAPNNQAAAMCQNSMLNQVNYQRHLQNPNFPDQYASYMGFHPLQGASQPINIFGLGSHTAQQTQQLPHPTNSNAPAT

Turning to nLUC-SlDELLA (natural protein), the luciferase activity, fold over the control co-expressing cLUC and nLUC (times the control) amounted to 170.
